Series [1] concerns HeLa Kyoto. Put plainly: solubility in G1/S (NP-40 vs SDS abundance) (log2 ratio); higher = more soluble. The following applies: cell cycle stage: G1/S.
For series [2], the system named is HeLa Kyoto. Put plainly: solubility change mitosis vs G1/S (difference of NP-40 vs SDS log2 ratios) (log2 ratio difference); higher = more soluble in mitosis.
In series [3] the test system is HeLa Kyoto. In words: melting temperature (median over replicates), in situ; higher = more thermally stable.
For series [4], the system named is HeLa Kyoto. Put plainly: thermal stability score vs G1/S (z-score of summed log2 fold changes over temperatures); higher = more thermally stable than in G1/S.
[5] abbreviates: cell cycle stage: early G1 (4.5 h after nocodazole release).
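For melting temperature (median over replicates), in situ in this document: HeLa Kyoto cells synchronized by double thymidine or nocodazole block, proteins quantified by TMT10plex mass spectrometry, three independent biological replicates.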
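For solubility change mitosis vs G1/S (difference of NP-40 vs SDS log2 ratios) in this document: synchronized HeLa Kyoto cells (double thymidine block for G1/S, nocodazole release for mitosis), protein amounts in NP-40 versus SDS lysates quantified by mass spectrometry, three biological replicates.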
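For solubility in G1/S (NP-40 vs SDS abundance) in this document: HeLa Kyoto cells arrested at G1/S by double thymidine block, proteins quantified by TMT10plex mass spectrometry in mild NP-40 versus SDS extracts, three biological replicates.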
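For thermal stability score vs G1/S (z-score of summed log2 fold changes over temperatures) in this document: synchronized HeLa Kyoto cells, proteins quantified by TMT10plex mass spectrometry, three biological replicates, mitosis taken 0.5 h after nocodazole release, G1/S directly after double thymidine block.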

For the sequence “MKVNRETKRLYVGGLSQDISEADLQNQFSRFGEVSDVEIITRKDDQGNPQKVFAYINISVAEADLKKCMSVLNKTKWKGGTLQIQLAKESFLHRLAQEREAAKAKKEESTTGNANLLEKTGGVDFHMKAVPGTEVPGHKNWVVSKFGRVLPVLHLKNQHKRKIIKYDPSKYCHNLKKIGEDFSNTIPISSLTWELEGGNDPMSKKRRGEFSDFHGPPKKIIKVQKDESSTGSLAMSTRPRRVIERPPLTQQQAAQKRTCDSITPSKSSPVPVSDTQKLKNLPFKTSGLETAKKRNSISDDDTDSEDELRMMIAKEENLQRTTQPSINESESDPFEVVRDDFKSGVHKLHSLIGLGIKNRVSCHDSDDDIMRNDREYDSGDTDEIIAMKKNVAKVKNSTEFSQMEKSTKKTSFKNRENCELSDHCIKLQKRKSNVESALSHGLKSLNRKSPSHSSSSEDADSASELADSEGGEEYNAMMKNCLRVNLTLADLEQLAGSDLKVPNEDTKSDGPETTTQCKFDRGSKSPKTPTGLRRGRQCIRPAEIVASLLEGEENTCGKQKPKENNLKPKFQAFKGVGCLYEKESMKKSLKDSVASNNKDQNSMKHEDPSIISMEDGSPYVNGSLGEVTPCQHAKKANGPNYIQPQKRQTTFESQDRKAVSPSSSEKRSKNPISRPLEGKKSLSLSAKTHNIGFDKDSCHSTTKTEASQEERSDSSGLTSLKKSPKVSSKDTREIKTDFSLSISNSSDVSAKDKHAEDNEKRLAALEARQKAKEVQKKLVHNALANLDGHPEDKPTHIIFGSDSECETEETSTQEQSHPGEEWVKESMGKTSGKLFDSSDDDESDSEDDSNRFKIKPQFEGRAGQKLMDLQSHFGTDDRFRMDSRFLETDSEEEQEEVNEKKTAEEEELAEEKKKALNVVQSVLQINLSNSTNRGSVAAKKFKDIIHYDPTKQDHATYERKRDDKPKESKAKRKKKREEAEKLPEVSKEMYYNIAMDLKEIFQTTKYTSEKEEGTPWNEDCGKEKPEEIQDPAALTSDAEQPSGFTFSFFDSDTKDIKEETYRVETVKPGKIVWQEDPRLQDSSSEEEDVTEETDHRNSSPGEASLLEKETTRFFFFSKNDERLQGSDLFWRGVGSNMSRNSWEARTTNLRMDCRKKHKDAKRKMKPK [NOL8]”, in series [1], the “solubility in G1/S (log2)” value was -1.85. Further, the “solubility change mitosis (log2)” value in series [2] came out at 1.08. The melting temperature in series [3] (cell cycle stage: G1/S) and in series [3] (cell cycle stage: mitosis) was 51.3 °C throughout. In addition, the thermal stability score in series [4] (setting [5]) was 1.32; in series [4] (cell cycle stage: mitosis), 2.26.
“MKYILVTGGVISGIGKGIIASSVGTILKSCGLHVTSIKIDPYINIDAGTFSPYEHGEVFVLDDGGEVDLDLGNYERFLDIRLTKDNNLTTGKIYQYVINKERKGDYLGKTVQVVPHITDAIQEWVMRQALIPVDEDGLEPQVCVIELGGTVGDIESMPFIEAFRQFQFKVKRENFCNIHVSLVPQPSSTGEQKTKPTQNSVRELRGLGLSPDLVVCRCSNPLDTSVKEKISMFCHVEPEQVICVHDVSSIYRVPLLLEEQGVVDYFLRRLDLPIERQPRKMLMKWKEMADRYDRLLETCSIALVGKYTKFSDSYASVIKALEHSALAINHKLEIKYIDSADLEPITSQEEPVRYHEAWQKLCSAHGVLVPGGFGVRGTEGKIQAIAWARNQKKPFLGVCLGMQLAVVEFSRNVLGWQDANSTEFDPTTSHPVVVDMPEHNPGQMGGTMRLGKRRTLFQTKNSVMRKLYGDADYLEERHRHRFEVNPVWKKCLEEQGLKFVGQDVEGERMEIVELEDHPFFVGVQYHPEFLSRPIKPSPPYFGLLLASVGRLSHYLQKGCRLSPRDTYSDRSGSSSPDSEITELKFPSINHD [CTPS1]”: in series [1], the “solubility in G1/S (log2)” value was -0.00383. The “solubility change mitosis (log2)” value in series [2] is -0.0782. Moreover, the melting temperature in series [3] (cell cycle stage: G1/S) and in series [3] (cell cycle stage: mitosis) was 55.3 °C throughout. Moreover, the thermal stability score in series [4] (setting [5]) is 0.505; in series [4] (cell cycle stage: mitosis), -2.34.
With “MLADLGLIGTIGEDDEVPVEPESDSGDEEEEGPIVLGRRQKALGKNRSADFNPDFVFTEKEGTYDGSWALADVMSQLKKKRAATTLDEKIEKVRKKRKTEDKEAKSGKLEKEKEAKEGSEPKEQEDLQENDEEGSEDEASETDYSSADENILTKADTLKVKDRKKKKKKGQEAGGFFEDASQYDENLSFQDMNLSRPLLKAITAMGFKQPTPIQKACIPVGLLGKDICACAATGTGKTAAFALPVLERLIYKPRQAPVTRVLVLVPTRELGIQVHSVTRQLAQFCNITTCLAVGGLDVKSQEAALRAAPDILIATPGRLIDHLHNCPSFHLSSIEVLILDEADRMLDEYFEEQMKEIIRMCSHHRQTMLFSATMTDEVKDLASVSLKNPVRIFVNSNTDVAPFLRQEFIRIRPNREGDREAIVAALLTRTFTDHVMLFTQTKKQAHRMHILLGLMGLQVGELHGNLSQTQRLEALRRFKDEQIDILVATDVAARGLDIEGVKTVINFTMPNTIKHYVHRVGRTARAGRAGRSVSLVGEDERKMLKEIVKAAKAPVKARILPQDVILKFRDKIEKMEKDVYAVLQLEAEEKEMQQSEAQINTAKRLLEKGKEAVVQEPERSWFQTKEERKKEKIAKALQEFDLALRGKKKRKKFMKDAKKKGEMTAEERSQFEILKAQMFAERLAKRNRRAKRARAMPEEEPVRGPAKKQKQGKKSVFDEELTNTSKKALKQYRAGPSFEERKQLGLPHQRRGGNFKSKSRYKRRK [DDX27]”, the “solubility in G1/S (log2)” value in series [1] is -2.35. Further, in series [2], the “solubility change mitosis (log2)” value worked out at 1.15. The melting temperature is 52.4 °C in series [3] (cell cycle stage: G1/S) and 52.2 °C in series [3] (cell cycle stage: mitosis). For the same sequence, the thermal stability score in series [4] (setting [5]) was 1.57; in series [4] (cell cycle stage: mitosis) it was 2.15.
In the case of “MLALISRLLDWFRSLFWKEEMELTLVGLQYSGKTTFVNVIASGQFSEDMIPTVGFNMRKVTKGNVTIKIWDIGGQPRFRSMWERYCRGVNAIVYMIDAADREKIEASRNELHNLLDKPQLQGIPVLVLGNKRDLPNALDEKQLIEKMNLSAIQDREICCYSISCKEKDNIDITLQWLIQHSKSRRS [ARL8B]”, in series [1], the “solubility in G1/S (log2)” value was -0.0397. Besides, in series [2], the “solubility change mitosis (log2)” value was -0.232. For the same sequence, the melting temperature was found to be 55.2 °C in series [3] (cell cycle stage: G1/S) and 56 °C in series [3] (cell cycle stage: mitosis). Besides, the thermal stability score was -1.93 in series [4] (setting [5]) and -1.85 in series [4] (cell cycle stage: mitosis).

The values above are taken from the supplement of paper PMC5998384.
